From paper PMC7755903 (Nature Communications, 2020)
Substitutions are numbered along the chain they refer to. Numbers in names are those of the source. Where “and” joins values, the source holds several entries; their conditions need not be identical. Equal values may be shown once.

B1: humanized E104.v2 IgG4 (antibody, V domains shown)
VH: EVQLVESGPGLVKPSETLSLTCTVSRFSLIGYAITWIRQPPGKGLEWIGGISSAATTFYSSWAKSRVTISRDTSKNQVSLKLSSVTAADTAVYYCARDPRGYGAALDRLDLWGQGTLVTVSS
VL: DIQMTQSPSSLSASVGDRVTITCQSIKSVYNNRLGWYQQKPGKAPKLLIYETSILTSGVPSRFSGSGSGTDFTLTISSLQPEDFATYYCAGGFDRSGDTTFGQGTKVEIK
notes: humanized E104.v2 VH: as the VH of Sm2 (E104.v1, PDB 6VVU heavy chain) with V71R and F78V (Kabat numbering); human IgG4 heavy chain constant region, the CH1 domain up to the upper hinge; upper hinge of human IgG4; human IgG4 heavy chain constant region after the upper hinge (core and lower hinge, CH2, CH3); IgG4 isotype version of E104.v2; copies: 2 + 2
B2: E104.v2 IgG1 hinge variant G1-KTH (antibody, V domains shown)
VH: B1 VH
VL: B1 VL
notes: variable domain of the heavy chain as in m6 (PDB 6VVU, Fab heavy chain) with V71R and F78V (Kabat numbering); human IgG1 heavy chain constant region before the upper hinge (CH1); upper hinge of the variant; human IgG1 heavy chain constant region after the upper hinge (core hinge from C226, CH2, CH3); as the light chain of m6 (PDB 6VVU, Fab light chain); IgG1 with a shortened upper hinge; source: …
B3: E104.v2 IgG1 hinge variant G1-H (antibody, V domains shown)
VH: B1 VH
VL: B1 VL
notes: as for B2
B4: E104.v2 IgG1 hinge variant G1-TH (antibody, V domains shown)
VH: B1 VH
VL: B1 VL
notes: humanized E104.v2 VH: as the VH of Sm2 (E104.v1, PDB 6VVU heavy chain) with V71R and F78V (Kabat numbering); human IgG1 heavy chain constant region, the CH1 domain up to the upper hinge; human IgG1 heavy chain constant region after the upper hinge (core and lower hinge, CH2, CH3); IgG1 with shortened upper hinge; copies: 2 + 2
B5: E104.v2 IgG1 hinge variant G1.G5 (antibody, V domains shown)
VH: B1 VH
VL: B1 VL
B6: E104.v2 IgG1 hinge variant G1 + GG (antibody, V domains shown)
VH: B1 VH
VL: B1 VL
notes: humanized E104.v2 VH: as the VH of Sm2 (E104.v1, PDB 6VVU heavy chain) with V71R and F78V (Kabat numbering); human IgG1 heavy chain constant region, the CH1 domain up to the upper hinge; human IgG1 heavy chain constant region after the upper hinge (core and lower hinge, CH2, CH3); IgG1 with extended upper hinge; copies: 2 + 2
B7: E104.v2 IgG1 hinge variant G1-H (antibody, V domains shown)
VH: B1 VH
VL: B1 VL
B8: E104.v2 IgG1 hinge variant G1-KTH (antibody, V domains shown)
VH: B1 VH
VL: B1 VL
notes: as for B4
B9: humanized E104.v1 IgG1 (antibody, V domains shown)
VH: B1 VH with R71V, V78F
VL: B1 VL
B10: E104.v2 IgG1 hinge variant G1 + GGS (antibody, V domains shown)
VH: B1 VH
VL: B1 VL
notes: variable domain of the heavy chain as in m6 (PDB 6VVU, Fab heavy chain) with V71R and F78V (Kabat numbering); human IgG1 heavy chain constant region before the upper hinge (CH1); upper hinge of the variant; human IgG1 heavy chain constant region after the upper hinge (core hinge from C226, CH2, CH3); as the light chain of m6 (PDB 6VVU, Fab light chain); IgG1 with an extended upper hinge; source: …
B11: E104.v2 IgG1 hinge variant G1 + GGS (antibody, V domains shown)
VH: B1 VH
VL: B1 VL
notes: as for B6
B12: humanized E104.v2 IgG4 (antibody, V domains shown)
VH: B1 VH
VL: B1 VL
notes: variable domain of the heavy chain as in m6 (PDB 6VVU, Fab heavy chain) with V71R and F78V (Kabat numbering); human IgG4 heavy chain constant region; upper hinge printed as ESKYGPP; as the light chain of m6 (PDB 6VVU, Fab light chain); IgG4 isotype version of E104.v2; source: 293 cells, transient transfection, purified (MabSelect SuRe, SEC); copies: 2 + 2
B13: E104.v2 IgG1 hinge variant G1-TH (antibody, V domains shown)
VH: B1 VH
VL: B1 VL
notes: as for B2
B14: E104.v2 IgG1 hinge variant G1 + G (antibody, V domains shown)
VH: B1 VH
VL: B1 VL
notes: as for B10
B15: E104.v2 IgG1 hinge variant G1 + G (antibody, V domains shown)
VH: B1 VH
VL: B1 VL
notes: as for B6
B16: humanized E104.v2 IgG1 (antibody, V domains shown)
VH: B1 VH
VL: B1 VL
notes: humanized E104.v2 VH: as the VH of Sm2 (E104.v1, PDB 6VVU heavy chain) with V71R and F78V (Kabat numbering); human IgG1 heavy chain constant region, the CH1 domain up to the upper hinge; upper hinge of human IgG1, wild type; human IgG1 heavy chain constant region after the upper hinge (core and lower hinge, CH2, CH3); v1 and v2 differ only in the heavy chain; IgG1; also called IgG1.v2; copies: 2 …
B17: E104.v2 IgG1 hinge variant G1.P5 (antibody, V domains shown)
VH: B1 VH
VL: B1 VL
notes: variable domain of the heavy chain as in m6 (PDB 6VVU, Fab heavy chain) with V71R and F78V (Kabat numbering); human IgG1 heavy chain constant region before the upper hinge (CH1); upper hinge of the variant; human IgG1 heavy chain constant region after the upper hinge (core hinge from C226, CH2, CH3); as the light chain of m6 (PDB 6VVU, Fab light chain); IgG1 with five prolines in the upper hinge; …

Tests used:
Settings in all cases: both partners purified
[1] = target: T1, human βI-tryptase monomer (Homo sapiens, UniProt Q15661); assay: SPR; Biacore T200; antibody captured on a CM5 chip by immobilised mouse anti-human IgG (Fc); threefold dilutions of βI-tryptase monomer injected at 30 µL/min, 25 °C, 3-min association, 10-min dissociation; 1:1 Langmuir fit; n = 2
T1 construct: mature wild-type human βI-tryptase, Uniprot Q15661, Ile31-Pro275 (Ile16-Pro246 in chymotrypsinogen numbering); The SPR methods say only 'human βI-tryptase monomer'; The methods describe the monomeric form as the zymogen, which still carries the N-terminal His6 tag and enterokinase site before Ile16; also called monomeric βI-tryptase; β-tryptase; source: Trichoplusia ni cells (baculovirus, …)
T1 sequence (Q15661 31-275): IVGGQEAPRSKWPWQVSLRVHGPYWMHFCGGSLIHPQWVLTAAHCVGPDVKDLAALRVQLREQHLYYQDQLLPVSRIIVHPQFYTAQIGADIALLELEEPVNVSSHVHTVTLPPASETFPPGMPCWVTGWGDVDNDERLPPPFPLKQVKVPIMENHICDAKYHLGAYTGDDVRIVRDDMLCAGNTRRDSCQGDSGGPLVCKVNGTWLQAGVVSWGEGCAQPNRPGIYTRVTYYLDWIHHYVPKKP

[2] = target: T2, human βI-tryptase monomer (Homo sapiens, UniProt Q15661); assay: SPR; Biacore T200; E104 IgG variants captured on immobilised mouse anti-human IgG (Fc) antibody on CM5 chips; threefold dilutions of human βI-tryptase monomer injected at 30 µL/min, 25 °C; 1:1 Langmuir model; n = 2
T2 construct: mature human βI-tryptase, Ile31-Pro275 of Uniprot Q15661 (Ile16-Pro246 in chymotrypsinogen numbering); The monomer used in SPR and HDX-MS; also called monomeric βI-tryptase; monomeric β-tryptase
T2 sequence (Q15661 31-275): as above

[3] = target: T3, human βI-tryptase monomer (Homo sapiens, UniProt Q15661); assay: SPR; Biacore T200; anti-tryptase IgG variant captured on a CM5 chip with anti-human IgG (Fc) antibody; threefold dilutions of human βI-tryptase monomer injected at 30 µL/min, 25 °C, 3-min association, 10-min dissociation; 1:1 binding model; representative single sensorgram sets
T3 construct: mature wild-type human βI-tryptase, Uniprot Q15661, Ile31-Pro275 (Ile16-Pro246 chymotrypsinogen numbering); also called monomeric βI-tryptase; β1-tryptase; source: Trichoplusia ni cells (baculovirus), secreted, purified (Ni-NTA, S200 SEC)
T3 sequence (Q15661 31-275): as above

Binder | Kd [1] | Kd [2] | also measured
B1 | 0.745 nM and 0.689 nM |  | 
B2 |  | 0.5 ± 0.09 nM | 
B3 |  | 0.6 ± 0.1 nM | 
B4 | 0.56 nM and 0.471 nM |  | 
B5 |  |  | Kd [3]: 0.643 nM
B6 | 0.448 nM and 0.422 nM |  | 
B7 |  |  | Kd [3]: 0.68 nM
B8 | 0.522 nM and 0.401 nM |  | 
B9 |  |  | Kd [3]: 0.543 nM
B10 |  | 0.5 ± 0.05 nM | 
B11 | 0.435 nM and 0.502 nM |  | 
B12 |  | 0.7 ± 0.04 nM | 
B13 |  | 0.5 ± 0.07 nM | 
B14 |  | 0.5 ± 0.01 nM | 
B15 | 0.538 nM and 0.521 nM |  | 
B16 | 0.6 nM |  | 
B17 |  | 0.4 ± 0.1 nM | 
